Measurements: the FLAb antibody collection
“And” between values parts separate entries of the source, which are not always exact repeats. Equal entries are not always repeated.

Experiment: patients with anti-drug antibodies; higher = more immunogenic

| Protein | patients with anti-drug antibodies |
| --- | --- |
| unnamed (protein) chain 1: QVQLVQSGAEVKKPGASVKVSCKVSGYTLTELSIHWVRQAPGKGLEWMGGFDPEENEIVYAQRFQGRVTMTEDTSTDTAYMELSSLRSEDTAVYYCAIVGSFSPLTLGLWGQGTMVTVSS chain 2: QSVLTQPPSVSGAPGQRVTISCTGSGSNIGAPYDVSWYQQLPGTAPKLLIYHNNKRPSGVPDRFSGSKSGTSASLAITGLQAEDEADYYCATVEAGLSGSVFGGGTKLTVL | 3.1% |
| unnamed (protein) chain 1: QVTLRESGPALVKPTQTLTLTCTVSGFSLTSYSVHWVRQPPGKGLEWLGVIWASGGTDYNSALMSRLSISKDTSRNQVVLTMTNMDPVDTATYYCARDPPSSLLRLDYWGRGTPVTVSS chain 2: DIVMTQSPDSLAVSLGERATINCKSSQSLLNSGNQKNYLAWYQQKPGQPPKLLIYGASTRESGVPDRFSGSGSGTDFTLTISSLQAEDVAVYYCQNVHSFPFTFGGGTKLEIK | 13% |
| unnamed (protein) chain 1: QVQLVQSGAEVKKPGASVKVSCKASGFNIKDTYIHWVRQAPGQRLEWMGRIDPANGYTKYDPKFQGRVTITADTSASTAYMELSSLRSEDTAVYYCAREGYYGNYGVYAMDYWGQGTLVTVSS chain 2: DIQMTQSPSSLSASVGDRVTITCKTSQDINKYMAWYQQTPGKAPRLLIHYTSALQPGIPSRFSGSGSGRDYTFTISSLQPEDIATYYCLQYDNLWTFGQGTKVEIK | 9% |
| unnamed (protein) chain 1: QVTLRESGPALVKPTQTLTLTCTFSGFSLSTAGMSVGWIRQPPGKALEWLADIWWDDKKHYNPSLKDRLTISKDTSKNQVVLKVTNMDPADTATYYCARDMIFNFYFDVWGQGTTVTVSS chain 2: DIQMTQSPSTLSASVGDRVTITCSASSRVGYMHWYQQKPGKAPKLLIYDTSKLASGVPSRFSGSGSGTEFTLTISSLQPDDFATYYCFQGSGYPFTFGGGTKVEIK | 1.5% |
| unnamed (protein) chain 1: EVQLQQSGPDLVKPGASVKISCKASGYSFTGYYMHWVKQSPGKGLEWIGRINPNNGVTLYNQKFKDKATLTVDKSSTTAYMELRSLTSEDSAVYYCARSTMITNYVMDYWGQGTSVTVSS chain 2: SIVMTQTPTSLLVSAGDRVTITCKASQSVSNDVAWYQQKPGQSPKLLISYTSSRYAGVPDRFSGSGYGTDFTLTISSVQAEDAAVYFCQQDYNSPPTFGGGTKLEIK | 72.5% |
| unnamed (protein) chain 1: QVQLQESGPGLVKPSQTLSLTCTVSGGSISSGDYYWSWIRQPPGKGLEWIGYIYYSGSTDYNPSLKSRVTMSVDTSKNQFSLKVNSVTAADTAVYYCARVSIFGVGTFDYWGQGTLVTVSS chain 2: EIVMTQSPATLSLSPGERATLSCRASQSVSSYLAWYQQKPGQAPRLLIYDASNRATGIPARFSGSGSGTDFTLTISSLEPEDFAVYYCHQYGSTPLTFGGGTKAEIK | 4.1% |
| unnamed (protein) chain 1: QVQLVESGGGVVQPGRSLRLDCKASGITFSNSGMHWVRQAPGKGLEWVAVIWYDGSKRYYADSVKGRFTISRDNSKNTLFLQMNSLRAEDTAVYYCATNDDYWGQGTLVTVSS chain 2: EIVLTQSPATLSLSPGERATLSCRASQSVSSYLAWYQQKPGQAPRLLIYDASNRATGIPARFSGSGSGTDFTLTISSLEPEDFAVYYCQQSSNWPRTFGQGTKVEIK | 7.7% |
| unnamed (protein) chain 1: QVQLQQPGAELVEPGGSVKLSCKASGYTFTSHWMHWVKQRPGQGLEWIGEINPSSGRNNYNEKFKSKATLTVDKSSSTAYMQFSSLTSEDSAVYYCVRYYGYDEAMDYWGQGTSVTVSS chain 2: DIVMTQAAFSNPVTLGTSASISCRSSKSLLHSNGITYLYWYLQKPGQSPQLLIYQMSNLASGVPDRFSSSGSGTDFTLRISRVEAEDVGVYYCAQNLELPYTFGGGTKLEIK | 0% |
| unnamed (protein) chain 1: QVQLVQSGAEVKKPGSSVMVSCQASGGLLEDYIINWVRQAPGQGPEWMGGIIPVLGTVHYGPKFQGRVTITADESTDTAYMELSSLRSEDTAMYYCATETALVVSETYLPHYFDNWGQGTLVTVSS chain 2: DIQMTQSPSSLSAAVGDRVTITCQASQDIVNYLNWYQQKPGKAPKLLIYVASNLETGVPSRFSGSGSGTDFSLTISSLQPEDVATYYCQQYDNLPLTFGGGTKVEIK | 28% |
| unnamed (protein) chain 1: QVQLQQSGPELKKPGASVKVSCKDSGYAFSSSWMNWVRQAPGQGLEWIGRIYPGDGDTNYNGKFQGRVTITADKSSSTAYMELSSLRSEDTAVYFCARSGLLRYAMDYWGQGTLVTVSS chain 2: DIQMTQSPSSLSASVGDRVTITCRASQDIRNYLNWYQQKPGKAVKLLIYYTSRLLPGVPSRFSGSGSGTDYSLTISSQEQEDIGTYFCQQGNTLPWTFGQGTKVEIR | 2.5% |
| unnamed (protein) chain 1: QVQLVQSGGGLVQAGGSLRLSCAASGGTFATSPMGWLRQAPGKGTEFVAAISPSGGDRIYADSVKGRFTISRDNAGYFIYLQMNSLKPEDTAVYYCAVRRRFDGTSYYTGDYDSWGQGTLVTVSS chain 2: EIVLTQSPGTLSLSPGERATLSCRASQSVSSSYLAWYQQKPGQAPRLLIYDASSRATGIPDRFSGSGSGTDFTLTISRLEPEDFAVYYCQQYSYSPVTFGQGTKVEIK | 0% |
| unnamed (protein) chain 1: QVQLQESGPGLVKPSETLSLTCTVSGFSLLSYGVHWVRQPPGKGLEWLGVIWTGGTTNYNSALMSRFTISKDDSKNTVYLKMNSLKTEDTAIYYCARYYYGMDYWGQGTLVTVSS chain 2: DIQMTQSPSSLSASVGDRVTITCKASQDVRNTVAWYQQKPGKAPKLLIYSSSYRNTGVPDRFSGSGSGTDFTLTISSLQAEDVAVYYCQQHYITPYTFGGGTKVEIK | 21.2% |
| unnamed (protein) chain 1: EVQLVESGGDLVQPGRSLRLSCAASGFIFSNYGMSWVRQAPGKGLEWVATISSASTYSYYPDSVKGRFTISRDNAKNSLYLQMNSLRVEDTALYYCGRHSDGNFAFGYWGQGTLVTVSS chain 2: DVLMTQSPLSLPVTPGEPASISCRSSRNIVHINGDTYLEWYLQKPGQSPQLLIYKVSNRFSGVPDRFSGSGSGTDFTLKISRVEAEDVGVYYCFQGSLLPWTFGQGTKVEIK | 4.2% |
| unnamed (protein) chain 1: QVQLVQSGAEVKKPGASVKVSCKASGYTFTSHWMHWVRQAPGQGLEWIGEFNPSNGRTNYNEKFKSKATMTVDTSTNTAYMELSSLRSEDTAVYYCASRDYDYDGRYFDYWGQGTLVTVSS chain 2: DIQMTQSPSSLSASVGDRVTITCSASSSVTYMYWYQQKPGKAPKLLIYDTSNLASGVPSRFSGSGSGTDYTFTISSLQPEDIATYYCQQWSSHIFTFGQGTKVEIK | 10% |
| unnamed (protein) chain 1: QVQLVQSGAEVKKPGASVKISCKASGYSFTAYYIHWVKQAPGQGLEWIGYISNYNRATNYNQKFKGRVTFTTDTSTSTAYMELRSLRSDDTAVYYCARDYDYDVGMDYWGQGTLVTVSS chain 2: DIVMTQSPDSLAVSLGERATISCRASESVDNYGISFMKWFQQKPGQPPKLLIYAASNQGSGVPDRFSGSGSGTDFTLTISSLQAEDVAVYYCQQSKEVPWTFGGGTKVEIK | 29% |
| unnamed (protein) chain 1: EVQLVESGGGLVKPGGSLKLSCAASGFAFSIYDMSWVRQTPEKCLEWVAYISSGGGTTYYPDTVKGRFTISRDNAKNTLYLQMSSLKSEDTAMYYCARHSGYGTHWGVLFAYWGQGTLVTVSA chain 2: DIQMTQTTSSLSASLGDRVTISCRASQDISNYLNWYQQKPDGTVKLLIYYTSILHSGVPSRFSGSGSGTDYSLTISNLEQEDFATYFCQQGNTLPWTFGCGTKLEI | 59% |
| unnamed (protein) chain 1: EVQLVESGGGLVKPGGSLKLSCAASGYTFTSYVMHWVRQAPGKGLEWIGYINPYNDGTKYNEKFQGRVTISSDKSISTAYMELSSLRSEDTAMYYCARGTYYYGTRVFDYWGQGTLVTVSS chain 2: DIVMTQSPATLSLSPGERATLSCRSSKSLQNVNGNTYLYWFQQKPGQSPQLLIYRMSNLNSGVPDRFSGSGSGTEFTLTISSLEPEDFAVYYCMQHLEYPITFGAGTKLEIK | 17.5% and 1% |
| unnamed (protein) chain 1: QVQLVQSGAEVKKPGASVKVSCKAFGYPFTDYLLHWVRQAPGQGLEWVGWLNPYSGDTNYAQKFQGRVTMTRDTSISTAYMELSRLRSDDTAVYYCTRTTLISVYFDYWGQGTMVTVSS chain 2: DIQMTQSPSSVSASVGDRVTIACRASQNIRNILNWYQQRPGKAPQLLIYAASNLQSGVPSRFSGSGSGTDFTLTINSLQPEDFATYYCQQSYSMPRTFGGGTKLEIK | 0.9% |
| unnamed (protein) chain 1: EVQLVQSGAEVKKPGESLKISCKGSGYIFTNYWIAWVRQMPGKGLESMGIIYPGDSDIRYSPSFQGQVTISADKSITTAYLQWSSLKASDTAMYYCARHDIEGFDYWGRGTLVTVSS chain 2: EIVLTQSPGTLSLSPGERATLSCRASQSVSSSFFAWYQQKPGQAPRLLIYGASSRATGIPDRLSGSGSGTDFTLTITRLEPEDFAVYYCQQYDSSAITFGQGTRLEIK | 3.3% |
